Laboratory results: the FLAb antibody collection (doi:10.7554/elife.23156)

B1: scFv; the commonest letter at each place (parent)
chain 1: EVKLDETGGGLVQPGRPMKLSCVASGFTFSDYWMNWVRQSPEKGLEWVAQIRNKPYNYETYYSDSVKGRFTISRDDSKSSVYLQMNNLRVEDMGIYYCTGSYYGMDYWGQGTSVTVS
chain 2: DVVMTQTPLSLPVSLGDQASISCRSSQSLVHSNGNTYLRWYLQKPGQSPKVLIYKVSNRFSGVPDRFSGSGSGTDFTLKISRVEAEDLGVYFCSQSTHVPWTFGGGTKLEIK

Tests used:
fluorescein = variants of: B1; assay: Kd (Tite-Seq); conditions: with fluorescein; format: scFv 4-4-20, heavy + light
[1] = variants of: B1; assay: yeast surface expression (ratio to wild type); higher = more expressed; conditions: format: scFv 4-4-20, heavy + light

Variant	Kd (fluorescein) [nM]	yeast surface expression [1]
chain 1 EVKLDETGGGLVQPGRPMKLSCVASGFTFHHYWMNWVRQSPEKGLEWVAQIRNKPYNYETYYSDSVKGRFTISRDDSKSSVYLQMNNLRVEDMGIYYCTGSYYGMDYWGQGTSVTVS chain 2 DVVMTQTPLSLPVSLGDQASISCRSSQSLVHSNGNTYLRWYLQKPGQSPKVLIYKVSNRFSGVPDRFSGSGSGTDFTLKISRVEAEDLGVYFCSQSTHVPWTFGGGTKLEIK [chain 1 S30H D31H]	1.75	0.746
chain 1 EVKLDETGGGLVQPGRPMKLSCVASGFTFHIYWMNWVRQSPEKGLEWVAQIRNKPYNYETYYSDSVKGRFTISRDDSKSSVYLQMNNLRVEDMGIYYCTGSYYGMDYWGQGTSVTVS chain 2 DVVMTQTPLSLPVSLGDQASISCRSSQSLVHSNGNTYLRWYLQKPGQSPKVLIYKVSNRFSGVPDRFSGSGSGTDFTLKISRVEAEDLGVYFCSQSTHVPWTFGGGTKLEIK [chain 1 S30H D31I]	≥ 10000	0.573
chain 1 EVKLDETGGGLVQPGRPMKLSCVASGFTFHLYWMNWVRQSPEKGLEWVAQIRNKPYNYETYYSDSVKGRFTISRDDSKSSVYLQMNNLRVEDMGIYYCTGSYYGMDYWGQGTSVTVS chain 2 DVVMTQTPLSLPVSLGDQASISCRSSQSLVHSNGNTYLRWYLQKPGQSPKVLIYKVSNRFSGVPDRFSGSGSGTDFTLKISRVEAEDLGVYFCSQSTHVPWTFGGGTKLEIK [chain 1 S30H D31L]	≥ 10000	0.608
chain 1 EVKLDETGGGLVQPGRPMKLSCVASGFTFHDYWCNWVRQSPEKGLEWVAQIRNKPYNYETYYSDSVKGRFTISRDDSKSSVYLQMNNLRVEDMGIYYCTGSYYGMDYWGQGTSVTVS chain 2 DVVMTQTPLSLPVSLGDQASISCRSSQSLVHSNGNTYLRWYLQKPGQSPKVLIYKVSNRFSGVPDRFSGSGSGTDFTLKISRVEAEDLGVYFCSQSTHVPWTFGGGTKLEIK [chain 1 S30H M34C]	6960	0.623
chain 1 EVKLDETGGGLVQPGRPMKLSCVASGFTFHDYWFNWVRQSPEKGLEWVAQIRNKPYNYETYYSDSVKGRFTISRDDSKSSVYLQMNNLRVEDMGIYYCTGSYYGMDYWGQGTSVTVS chain 2 DVVMTQTPLSLPVSLGDQASISCRSSQSLVHSNGNTYLRWYLQKPGQSPKVLIYKVSNRFSGVPDRFSGSGSGTDFTLKISRVEAEDLGVYFCSQSTHVPWTFGGGTKLEIK [chain 1 S30H M34F]	1.5	0.945
chain 1 EVKLDETGGGLVQPGRPMKLSCVASGFTFHDYWMEWVRQSPEKGLEWVAQIRNKPYNYETYYSDSVKGRFTISRDDSKSSVYLQMNNLRVEDMGIYYCTGSYYGMDYWGQGTSVTVS chain 2 DVVMTQTPLSLPVSLGDQASISCRSSQSLVHSNGNTYLRWYLQKPGQSPKVLIYKVSNRFSGVPDRFSGSGSGTDFTLKISRVEAEDLGVYFCSQSTHVPWTFGGGTKLEIK [chain 1 S30H N35E]	≥ 10000	0.504
chain 1 EVKLDETGGGLVQPGRPMKLSCVASGFTFHDYWMNWFRQSPEKGLEWVAQIRNKPYNYETYYSDSVKGRFTISRDDSKSSVYLQMNNLRVEDMGIYYCTGSYYGMDYWGQGTSVTVS chain 2 DVVMTQTPLSLPVSLGDQASISCRSSQSLVHSNGNTYLRWYLQKPGQSPKVLIYKVSNRFSGVPDRFSGSGSGTDFTLKISRVEAEDLGVYFCSQSTHVPWTFGGGTKLEIK [chain 1 S30H V37F]	56.2	0.754

Further lines, with some results ahead:

Kd (fluorescein) [nM]	Variant	yeast surface expression [1]
3.17	chain 1 EVKLDETGGGLVQPGRPMKLSCVASGFTFHDYWMNWVRQSPEKGLEWVAQIRNKPYNYETYYSDSVKGRFTISRDDSKSSVYLQMNNLRVEDMGIYYCTGSYYGMDYWGQGTSVTVS chain 2 DVVMTQTPLSLPVSLGDQASISCRSSQSLVHSNGNTYLRWYLQKPGQSPKVLIYKVSNRFSGVPDRFSGSGSGTDFTLKISRVEAEDLGVYFCSQSTHVPWTFGGGTKLEIK [chain 1 S30H]	0.839
4.68	chain 1 EVKLDETGGGLVQPGRPMKLSCVASGFTFHKYWMNWVRQSPEKGLEWVAQIRNKPYNYETYYSDSVKGRFTISRDDSKSSVYLQMNNLRVEDMGIYYCTGSYYGMDYWGQGTSVTVS chain 2 DVVMTQTPLSLPVSLGDQASISCRSSQSLVHSNGNTYLRWYLQKPGQSPKVLIYKVSNRFSGVPDRFSGSGSGTDFTLKISRVEAEDLGVYFCSQSTHVPWTFGGGTKLEIK [chain 1 S30H D31K]	0.668
≥ 10000	chain 1 EVKLDETGGGLVQPGRPMKLSCVASGFTFHSYWMPWVRQSPEKGLEWVAQIRNKPYNYETYYSDSVKGRFTISRDDSKSSVYLQMNNLRVEDMGIYYCTGSYYGMDYWGQGTSVTVS chain 2 DVVMTQTPLSLPVSLGDQASISCRSSQSLVHSNGNTYLRWYLQKPGQSPKVLIYKVSNRFSGVPDRFSGSGSGTDFTLKISRVEAEDLGVYFCSQSTHVPWTFGGGTKLEIK [chain 1 S30H D31S N35P]	0.391
≥ 10000	chain 1 EVKLDETGGGLVQPGRPMKLSCVASGFTFHDYWMDWVRQSPEKGLEWVAQIRNKPYNYETYYSDSVKGRFTISRDDSKSSVYLQMNNLRVEDMGIYYCTGSYYGMDYWGQGTSVTVS chain 2 DVVMTQTPLSLPVSLGDQASISCRSSQSLVHSNGNTYLRWYLQKPGQSPKVLIYKVSNRFSGVPDRFSGSGSGTDFTLKISRVEAEDLGVYFCSQSTHVPWTFGGGTKLEIK [chain 1 S30H N35D]	0.828
≥ 10000	chain 1 EVKLDETGGGLVQPGRPMKLSCVASGFTFHDYAMNWVRQSPEKGLEWVAQIRNKPYNYETYYSDSVKGRFTISRDDSKSSVYLQMNNLRVEDMGIYYCTGSYYGMDYWGQGTSVTVS chain 2 DVVMTQTPLSLPVSLGDQASISCRSSQSLVHSNGNTYLRWYLQKPGQSPKVLIYKVSNRFSGVPDRFSGSGSGTDFTLKISRVEAEDLGVYFCSQSTHVPWTFGGGTKLEIK [chain 1 S30H W33A]	0.733
